{"source": "paper PMC8130932", "about": "(PLoS Pathogens, 2021)", "key": {"[1]": {"target": "T1, SARS-CoV-2 spike glycoprotein S1+S2 extracellular domain (SARS-CoV-2, reference sequence, UniProt P0DTC2)", "T1 construct": "also called full-length spike glycoprotein ectodomain", "experiment": "ELISA"}, "[2]": {"target": "T2, SARS-CoV-2 spike glycoprotein, full-length, prefusion-stabilised, on MDCK-SIAT1 cells (SARS-CoV-2, reference sequence, UniProt P0DTC2, 986KV987 to 986PP987 | 682RRAR685 to 682GSAG685)", "T2 construct": "also called MDCK-Spike", "experiment": "flow cytometry on cells", "settings": "one partner purified"}}}
{"binder": "FD 11A (antibody, V domains shown, source: HEK293T, transfected; culture supernatant or purified) VH: EVQLVESGGGVVQPGRSLRLSCAASGFTFSSYGMHWVRQAPGKGLEWVAVIWYDGSNKYYADSVKGRFTISRDNSKNTLYLQMNSLRAEDTAVYYCAKGPDILTGYYNYYYYGMDVWGQGTMVTVSS VL: QSVLTQPPSVSGAPGQRVTISCTGSSSNIGAGYDVHWYQQLPGTAPKLLIYGNSNRPSGVPDRFSGSKSGTSASLAITGLQAEDEADYYCQSYDSSLSGFYVVFGGGTKLTVL", "values": [{"measurement": "OD450", "setting": "[1]", "result": 1.64, "unit": "OD450"}, {"measurement": "binding result", "setting": "[2]", "result": "binds"}]}
{"binder": "FJ 1C (antibody, V domains shown, source: HEK293T, transfected; culture supernatant or purified) VH: QVQLQESGPGLVKPSETLSLTCTVSGYSISSGYYWGWIRQPPGKGLEWIGSIYHSGSTYYNPSLKSRVTISVDTSKNQFSLKLSSVTAADTAVYYCARDKALLWFGELFTNLFDYWGQGTLVTVSS VL: QSALTQPASVSGSPGQSITISCTGTSSDVGGYNYVSWYQQHPGKAPKLMIYEVSNRPSGVSNRFSGSKSGNTASLTISGLQAEDEANYYCSSYTSSSTLVFGGGTKLTVL", "values": [{"measurement": "OD450", "setting": "[1]", "result": 1.61, "unit": "OD450"}]}
{"binder": "FD 11E (antibody, V domains shown, source: HEK293T, transfected; culture supernatant or purified) VH: EVQLVESGGGLVKPGGSLRLSCAASGFTFSSYSMNWVRQAPGKGLEWVSSISSSSSYIYYADSVKGRFTISRDNAKNSLYLQMNSLRAEDTAVYYCASLAAAGPETYYYYGMDVWGQGTMVTVSS VL: not shown", "values": [{"measurement": "OD450", "setting": "[1]", "result": 1.45, "unit": "OD450"}, {"measurement": "binding result", "setting": "[2]", "result": "binds"}]}
{"binder": "FD 1E (antibody, V domains shown, source: HEK293T, transfected; culture supernatant or purified) VH: EVQLLESGGGLVKPGGSLRLSCAASGFTFSSYSMNWVRQAPGKGLEWVSSISSSSSYIYYADSVKGRFTISRDNAKNSLYLQMNSLRAEDTAVYYCASLAAAGPETYYYYGMDVWGQGTMVTVSS VL: not shown", "values": [{"measurement": "OD450", "setting": "[1]", "result": 1.45, "unit": "OD450"}, {"measurement": "binding result", "setting": "[2]", "result": "binds"}]}
{"binder": "FI 3A (antibody, V domains shown, source: HEK293T, transfected; culture supernatant or purified) VH: EVQLLESGGGLIQPGGSLRLSCAASGFTVSSNYMSWVRQAPGKGLEWVSVIYSGGSTYYADSVKGRFTISRDNSKNTLYLQMNSLRAEDTAVYYCARDHVRPGMNIWGQGTMVTVSS VL: not shown", "values": [{"measurement": "OD450", "setting": "[1]", "result": 1.6, "unit": "OD450"}, {"measurement": "binding result", "setting": "[2]", "result": "binds"}]}
{"binder": "FD 11C (antibody, V domains shown, source: HEK293T, transfected; culture supernatant or purified) VH: EVQLLESGPGLVKPSETLSLTCTVSGGSISSSSYYWGWIRQPPGKGLEWIGSIYYSGSTYYNPSLKSRVTISVDTSKNQFSLKLSSVTAADTAVYYCAREYYYGSETKKYYYYYGMDVWGQGTTVTVSS VL: not shown", "values": [{"measurement": "OD450", "setting": "[1]", "result": 1.2, "unit": "OD450"}, {"measurement": "binding result", "setting": "[2]", "result": "binds"}]}
{"binder": "FD 7D (antibody, V domains shown, source: HEK293T, transfected; culture supernatant or purified) VH: EVQLVESGAEVKKPGESLRISCKGSGYSFTSYWISWVRQMPGKGLEWMGRIDPSDSYTNYSPSFQGHVTISADKSISTAYLQWSSLKASDTAMYYCARHSDCSSTSCYFVDAFDIWGQGTMVTVSS VL: not shown", "values": [{"measurement": "OD450", "setting": "[1]", "result": 1.44, "unit": "OD450"}]}
{"binder": "FD 8B (antibody, V domains shown, source: HEK293T, transfected; culture supernatant or purified) VH: EVQLLESGAEVKKPGASVKVSCKVSGYTLTELSMHWVRQAPGKGLEWMGGFDPEDGETIYAQKFQGRVTMTEDTSTDTAYMELSSLRSEDTAVYYCATAAAINCSSTSCYYYYYYYGMDVWGQGTTVTVSS VL: not shown", "values": [{"measurement": "OD450", "setting": "[1]", "result": 1.1, "unit": "OD450"}]}
{"binder": "FG 12C (antibody, V domains shown, source: HEK293T, transfected; culture supernatant or purified) VH: EVQLVESGGGLVQPGRSLRLSCAASGFTFDDYAMHWVRQAPGKGLEWVSGISWNSGSIGYADSVKGRFTISRDNAKNSLYLQMNSLRAEDTALYYCAKDMRVHDYGDYYFDYWGQGTLVTVSS VL: SYELTQPPSVSVAPGKTARITCGGNNIGSKSVHWYQQKPGQAPVLVIYYDSDRPSGIPERFSGSNSGNTATLTISRVEAGDEADYYCQVWDSSSDHPVFGGGTKLTVL", "values": [{"measurement": "OD450", "setting": "[1]", "result": 1.74, "unit": "OD450"}]}
{"binder": "FN 8C (antibody, V domains shown, source: HEK293T, transfected; culture supernatant or purified) VH: QVQLVESGGGVVQPGRSLRLSCAASGFTFSSYGMHWVRQAPGKGLEWVAVISYDGSNKYYADTVKGRFTISRDNSKNTLYLQMNSLRAEDTAVYYCARERTYYDILTGYRHYYGMDVWGQGTTVTVSS VL: SYELTQPPSVSVAPGQTARITCGGNNIGSKSVHWYQQKPGQAPVLVVYDDSDRPSGIPERFSGSNSGNTATLTISRVEAGDEADYYCQVWDSSSDHWVFGGGTKLTVL", "values": [{"measurement": "OD450", "setting": "[1]", "result": 0.54, "unit": "OD450"}]}
{"binder": "EW 9B (antibody, V domains shown, source: HEK293T, transfected; culture supernatant or purified) VH: EVQLVQSGAEVKKPGASVKVSCKASGYTFTSYYMHWVRQAPGQGLEWMGIINPSGGSTSYAQKFQGRVTMTRDTSTSTVYMELSSLRSEDTAVYYCAREDGVVPAANLMISLEDYYYYGMDVWGQGTTVTVSS VL: EIVLTQSPATLSLSPGERATLSCRASQSVSSYLAWYQQKPGQAPRLLIYDASNRATGIPARFSGSGSGTDFTLTISSLEPEDFAVYYCQQRSNWPLTFGGGTKVDIK", "values": [{"measurement": "OD450", "setting": "[1]", "result": 0.22, "unit": "OD450"}]}
{"binder": "FD 10A (antibody, V domains shown, source: HEK293T, transfected; culture supernatant or purified) VH: EVQLVESGGGLVQPGGSLRLSCAASGFTFSSYWMHWVRQAPGKGLVWVSRINSDGSSTSYADSVKGRFTISRDNAKNTLYLQMNSLRAEDTAVYYCANMAFDIWGQGTMVTVSS VL: not shown", "values": [{"measurement": "OD450", "setting": "[1]", "result": 1.78, "unit": "OD450"}]}
{"binder": "FJ 4E (antibody, V domains shown, source: HEK293T, transfected; culture supernatant or purified) VH: QVQLVESGPGLVKPSETLSLTCSVSGGSISSGTYYWSWIRQQPGKGLEWIGYIYNTGRPYYNPFLKSRITISVDSSKNQFSLKLTSVTAADTAVYYCARDEYDSSDSGIQGHWFDPWGQGTLVTVSS VL: AIRMTQSPSSLSASVGDRVTITCRTSQNINSFLNWYQQKPGKGPNLLIYGAFTLQSGVPSRFSGSGSGTDFTLTISSLQPEDFATYFCQQSYSTPWTFGQGTKVEIK", "values": [{"measurement": "OD450", "setting": "[1]", "result": 0.26, "unit": "OD450"}]}
{"binder": "FM 1A (antibody, V domains shown, source: HEK293T, transfected; culture supernatant or purified) VH: EVQLLESGGGVVQPGRSLRLSCAASGFTFSSYGMHWVRQAPGKGLEWVAVIWYDGSNKYYADSVKGRFTISRDNSKNTLYLQMNSLRAEDTAVYYCAREGAVGATRGFDYWGQGTLVTVSS VL: SYELTQPPSVSVAPGQTARITCGGNNIGSKSVHWYQQKPGQAPVLVVYDDSDRPSGIPERFSGSNSGNTATLTISRVEAGDEADYYCQVWDSSSDQGVFGGGTKLTVL", "values": [{"measurement": "OD450", "setting": "[1]", "result": 0.25, "unit": "OD450"}]}
{"binder": "FD 1D (antibody, V domains shown, source: HEK293T, transfected; culture supernatant or purified) VH: EVQLVESGGGVVQPGRSLRLSCAASGFTFSSYAMHWVRQAPGKGLEWVAVISYDGSNKYYADSVKGRFTISRDNSKNTLYLQMNSLRAEDTAVYYCARAGSGSYLNWFDPWGQGTLVTVSS VL: EIVLTQSPATLSLSPGERATLSCRASQSVSSYLAWYQQKPGQAPRLLIYDASNRATGIPARFSGSGSGTDFTLTISSLEPEDFAVYYCQQRSNWPITFGQGTRLEIK", "values": [{"measurement": "OD450", "setting": "[1]", "result": 0.4, "unit": "OD450"}]}
{"binder": "FD 5D (antibody, V domains shown, source: HEK293T, transfected; culture supernatant or purified) VH: EVQLVESGGGLVQPGGSLRLSCAASGFTFSSYSMNWVRQAPGKGLEWVSYISSSSSTIYYADPVKGRFTISRDNAKNSLYLQMNSLRAEDTAVYYCASPGGITAAGTSVLFGYYGMDVWGQGTMVTVSS VL: not shown", "values": [{"measurement": "OD450", "setting": "[1]", "result": 1.83, "unit": "OD450"}]}
{"binder": "FJ 10B (antibody, V domains shown, source: HEK293T, transfected; culture supernatant or purified) VH: QVQLVQSGAEVKKPGESLRISCKGSGYSFTSYWISWVRQMPGKGLEWMGRIDPSDSYTNYSPSFQGHVTISADKSISTAYLQWSSLKASDTAMYYCARLDPRYGPDYYGMDVWGQGTTVTVSS VL: AIRMTQSPSSLSASVGDRVTITCRASQSISSYLNWYQQKPGKAPKLLIHAASSLQSGVPSRFSGSGSGTDFTLTMSSLQPEDFATYYCQQSYSTPLTFGGGTKVEIR", "values": [{"measurement": "OD450", "setting": "[1]", "result": 1.48, "unit": "OD450"}]}
{"binder": "FN 12A (antibody, V domains shown, source: HEK293T, transfected; culture supernatant or purified) VH: QVQLVQSGAEVKKPGSSVKVSCKASGGTFSSYAISWVRQAPGQGLEWMGRIIPILGIANYAQKFQGRVTITADKSTSTAYMELSSLRSEDTAVYYCARSGCSSTSCPSNLYYYYYGMDVWGQGTTVTVSS VL: QSVLTQPPSVSAAPGQKVTISCSGSSSNIGNNYVSWYQQLPGTAPKLLIYDNNKRPSGIPDRFSGSKSGTSATLGITGLQTGDEADYYCGTWDSSLSALVFGGGTKLTVL", "values": [{"measurement": "OD450", "setting": "[1]", "result": 2.24, "unit": "OD450"}]}
